Data: article PMC11503464, “Copper-61 is an advantageous alternative to gallium-68 for PET imaging of somatostatin receptor-expressing tumors: a head-to-head comparative preclinical study” (Frontiers in Nuclear Medicine, 2024)

Experiments:
[1] = Stability of labeling solutions at room temperature by radio-HPLC; assay type: physicochemical; settings: labeling solution stored at room temperature
Experimental: An aliquot of DOTA-TOC or NODAGA-TOC (3–6 nmol, 1 mg/ml in TraceSelect water) was diluted in 0.25–0.30 ml ammonium acetate (0.5 M, pH 8), followed by the addition of [^61Cu]CuCl2 (30–150 MBq). The reaction mixture was incubated for 15 min at 95°C (DOTA-TOC) or at room temperature (NODAGA-TOC). The pH of the reaction mixture was between 5 and 6. Quality control was performed on a Shimadzu 2020 HPLC system connected to a Berthold radio detector (Flow Star 513).

[2] = assay type: physicochemical; settings: pH 7.4, log D(O/PBS pH 7.4)
Experimental: Briefly, the radiotracer (10 µl, 1 µM) was added to 1 ml of a 1:1 pre-saturated mixture of 1-octanol and phosphate-buffered saline (PBS pH 7.4). The solution was vortexed for 30 min and then centrifuged at 3,000 rpm to achieve phase separation. Aliquots of 0.1 ml from each phase were collected and measured in a γ-counter. The distribution coefficient was calculated as the average of the logarithmic values (n = 3) of the ratio between the radioactivity in the organic and PBS phases. [^68Ga]Ga-DOTA-TOC was used as a reference.

HEK-SST2 cells [3] = experiment: Cellular uptake and distribution on intact HEK-SST2 cells; assay type: cell-based, human; settings: specific uptake, after 4 h at 37°C
Experimental: At the defined time points, the medium was removed, and the cells were washed twice with ice-cold PBS. The cells were then treated twice for 5 min with ice-cold glycine solution (0.05 M, pH 2.8) to detach the cell membrane-bound fraction (acid released). Afterward, the cells containing the internalized fraction were detached using NaOH 1 M at 37°C and collected for measurement. [^68Ga]Ga-DOTA-TOC was evaluated as a reference.

HEK-SST2 cells [4] = experiment: Efflux from HEK-SST2 cells; assay type: cell-based, human
Experimental: The efflux was studied after 1 h incubation of the cells with the radiotracer at 37°C and the removal of the unbound fraction and the cell membrane-bound fraction, as described above (acid-wash). The cells were then incubated with fresh medium at 37°C either alone or with a competitor (1,000-fold excess of DOTA-TOC, 2.5 µM/well) for 10, 20, 30, 45, 60, 90, 120, 150, 180, and 240 min. At each time point, the efflux (or retention) was measured after the removal of the medium without or with the competitor and replacement with fresh pre-warmed (37°C) medium alone or with the competitor. At the end of the experiment, the cells were detached using 1 M NaOH at 37°C and collected to determine the remaining cell-associated radiotracer.

[5] = design: species or system mice; settings: mouse, in vivo
Experimental: (§1) [^64Cu]CuCl2 was provided by the University Hospital Tübingen, Germany. […] OLINDA/EXM 1.0 was used to integrate the fitted time-activity curves and to estimate the organ and effective doses using the whole-body adult female model. For all the calculations, the assumption was made that the mouse biodistribution, determined as the %IA/organ, was the same as the human biodistribution. The dosimetry estimates were performed as previously described ([14]).

in vivo [6] = settings: female, athymic nude-Foxn1^nu/Foxn1^+, mouse, 200 pmol, total radioactivity
in vivo [7] = experiment: in vivo; design: species or system mice; settings: BALB/c, mouse, total radioactivity
Experimental: as §1

C[C@@H](O)[C@@H]1NC(=O)[C@H](CCCCN)NC(=O)[C@@H](Cc2c[nH]c3ccccc23)NC(=O)[C@H](Cc2ccc(O)cc2)NC(=O)[C@@H](NC(=O)[C@@H](Cc2ccccc2)NC(=O)CCC(C(=O)O)N2CCN(CC(=O)O)CCN(CC(=O)O)CC2)CSSC[C@@H](C(=O)N[C@H](CO)[C@@H](C)O)NC1=O (some centres unmarked) [[^61Cu]Cu-NODAGA-TOC, metal not drawn]
Radiochemical purity (%) 2 h ([1]; 2 h after end of synthesis): 98 ± 1% | Radiochemical purity (%) 4 h ([1]; 4 h after end of synthesis): 97 ± 1% | logD [2]: -2.6 ± 0.24 | Cellular uptake (surface bound + internalized) (HEK-SST2 cells [3]): 70.9 ± 3.5% | Efflux plateau in the absence of a competitor (HEK-SST2 cells [4]; after 2 h, 37°C, no further increase at 4 h): approximately 40% | Efflux with competitor (HEK-SST2 cells [4]; after 4 h at 37°C, DOTA-TOC (competitor) added to the medium): 80% | Total absorbed dose, Adrenals [5]: 6.77 × 10^−3 mGy/MBq | Total absorbed dose, Brain [5]: 1.53 × 10^−5 mGy/MBq | Total absorbed dose, Breasts [5]: 2.14 × 10^−4 mGy/MBq | Total absorbed dose, Gallbladder wall [5]: 2.14 × 10^−3 mGy/MBq | Total absorbed dose, Heart wall [5]: 1.02 × 10^−3 mGy/MBq | Total absorbed dose, Kidneys [5]: 9.65 × 10^−2 mGy/MBq | Total absorbed dose, LLI wall [5]: 8.28 × 10^−4 mGy/MBq | Total absorbed dose, Liver [5]: 4.06 × 10^−3 mGy/MBq | Total absorbed dose, Lungs [5]: 1.67 × 10^−3 mGy/MBq | Total absorbed dose, Muscle [5]: 5.63 × 10^−4 mGy/MBq | Total absorbed dose, Osteogenic cells [5]: 6.57 × 10^−4 mGy/MBq | Total absorbed dose, Ovaries [5]: 1.19 × 10^−3 mGy/MBq | Total absorbed dose, Pancreas [5]: 2.23 × 10^−2 mGy/MBq | Total absorbed dose, Red marrow [5]: 1.07 × 10^−3 mGy/MBq | Total absorbed dose, Skin [5]: 2.42 × 10^−4 mGy/MBq | Total absorbed dose, Small intestine [5]: 1.12 × 10^−2 mGy/MBq | Total absorbed dose, Spleen [5]: 3.49 × 10^−3 mGy/MBq | Total absorbed dose, Stomach wall [5]: 5.34 × 10^−3 mGy/MBq | Total absorbed dose, Thymus [5]: 1.98 × 10^−4 mGy/MBq | Total absorbed dose, Thyroid [5]: 5.27 × 10^−5 mGy/MBq | Total absorbed dose, Total body [5]: 1.27 × 10^−3 mGy/MBq | Total absorbed dose, ULI wall [5]: 2.14 × 10^−3 mGy/MBq | Total absorbed dose, Urinary bladder wall [5]: 3.48 × 10^−4 mGy/MBq | Total absorbed dose, Uterus [5]: 1.03 × 10^−3 mGy/MBq | tissue uptake at 1 h (in vivo [6]; Adrenal uptake): 0.99 ± 0.17 %ID/g | tissue uptake at 4 h (in vivo [6]; Adrenal uptake): 0.67 ± 0.26 %ID/g | tissue uptake at 1 h (in vivo [6]; Blood uptake): 0.22 ± 0.04 %ID/g | tissue uptake at 4 h (in vivo [6]; Blood uptake): 0.04 ± 0.02 %ID/g | tissue uptake at 1 h (in vivo [6]; Bone uptake): 0.46 ± 0.17 %ID/g | tissue uptake at 4 h (in vivo [6]; Bone uptake): 0.31 ± 0.11 %ID/g | tissue uptake at 1 h (in vivo [6]; Heart uptake): 0.16 ± 0.04 %ID/g | tissue uptake at 4 h (in vivo [6]; Heart uptake): 0.07 ± 0.03 %ID/g | tissue uptake at 1 h (in vivo [6]; Intestine uptake): 0.92 ± 0.12 %ID/g | tissue uptake at 4 h (in vivo [6]; Intestine uptake): 0.65 ± 0.23 %ID/g | tissue uptake at 1 h (in vivo [6]; Kidneys uptake): 12.5 ± 2.25 %ID/g | tissue uptake at 4 h (in vivo [6]; Kidneys uptake): 4.36 ± 0.92 %ID/g | tissue uptake at 1 h (in vivo [6]; Liver uptake): 0.29 ± 0.04 %ID/g | tissue uptake at 4 h (in vivo [6]; Liver uptake): 0.27 ± 0.09 %ID/g | tissue uptake at 1 h (in vivo [6]; Lung uptake): 1.09 ± 0.2 %ID/g | tissue uptake at 4 h (in vivo [6]; Lung uptake): 0.51 ± 0.24 %ID/g | tissue uptake at 1 h (in vivo [6]; Muscle uptake): 0.16 ± 0.06 %ID/g | tissue uptake at 4 h (in vivo [6]; Muscle uptake): 0.07 ± 0.04 %ID/g | tissue uptake at 1 h (in vivo [6]; Pancreas uptake): 2.59 ± 0.49 %ID/g | tissue uptake at 4 h (in vivo [6]; Pancreas uptake): 0.6 ± 0.21 %ID/g | tissue uptake at 1 h (in vivo [6]; Pituitary uptake): 3.8 ± 1.35 %ID/g | tissue uptake at 4 h (in vivo [6]; Pituitary uptake): 2.97 ± 0.95 %ID/g | tissue uptake at 1 h (in vivo [6]; SST2-tumor uptake): 8.88 ± 3.19 %ID/g | tissue uptake at 4 h (in vivo [6]; SST2-tumor uptake): 7.39 ± 1.36 %ID/g | tissue uptake at 1 h (in vivo [6]; Spleen uptake): 0.22 ± 0.05 %ID/g | tissue uptake at 4 h (in vivo [6]; Spleen uptake): 0.1 ± 0.04 %ID/g | tissue uptake at 1 h (in vivo [6]; Stomach uptake): 2.34 ± 0.43 %ID/g | tissue uptake at 4 h (in vivo [6]; Stomach uptake): 1.22 ± 0.25 %ID/g

C[C@@H](O)[C@@H]1NC(=O)[C@H](CCCCN)NC(=O)[C@@H](Cc2c[nH]c3ccccc23)NC(=O)[C@H](Cc2ccc(O)cc2)NC(=O)[C@@H](NC(=O)[C@@H](Cc2ccccc2)NC(=O)CN2CCN(CC(=O)O)CCN(CC(=O)O)CCN(CC(=O)O)CC2)CSSC[C@@H](C(=O)N[C@H](CO)[C@@H](C)O)NC1=O [[^61Cu]Cu-DOTA-TOC, metal not drawn]
tissue uptake at 1 h (in vivo [6]; Adrenal uptake): 2.05 ± 0.58 %ID/g | tissue uptake at 4 h (in vivo [6]; Adrenal uptake): 1.14 ± 0.5 %ID/g | tissue uptake at 1 h (in vivo [6]; Blood uptake): 0.38 ± 0.09 %ID/g | tissue uptake at 4 h (in vivo [6]; Blood uptake): 0.21 ± 0.04 %ID/g | tissue uptake at 1 h (in vivo [6]; Bone uptake): 0.6 ± 0.16 %ID/g | tissue uptake at 4 h (in vivo [6]; Bone uptake): 0.5 ± 0.19 %ID/g | tissue uptake at 4 h (in vivo [6]; Heart uptake): 0.49 ± 0.06 %ID/g | tissue uptake at 4 h (in vivo [6]; Intestine uptake): 2.06 ± 0.92 %ID/g | tissue uptake at 1 h (in vivo [6]; Kidneys uptake): 5.32 ± 0.58 %ID/g | tissue uptake at 4 h (in vivo [6]; Kidneys uptake): 2.33 ± 0.39 %ID/g | tissue uptake at 4 h (in vivo [6]; Liver uptake): 2.52 ± 0.56 %ID/g | tissue uptake at 1 h (in vivo [6]; Lung uptake): 1.96 ± 0.16 %ID/g | tissue uptake at 4 h (in vivo [6]; Lung uptake): 1.25 ± 0.08 %ID/g | tissue uptake at 4 h (in vivo [6]; Muscle uptake): 0.16 ± 0.08 %ID/g | tissue uptake at 1 h (in vivo [6]; Pancreas uptake): 4.29 ± 0.5 %ID/g | tissue uptake at 4 h (in vivo [6]; Pancreas uptake): 0.68 ± 0.07 %ID/g | tissue uptake at 1 h (in vivo [6]; Pituitary uptake): 3 ± 1.32 %ID/g | tissue uptake at 4 h (in vivo [6]; Pituitary uptake): 2.43 ± 1.27 %ID/g | tissue uptake at 1 h (in vivo [6]; SST2-tumor uptake): 7.44 ± 2.33 %ID/g | tissue uptake at 4 h (in vivo [6]; SST2-tumor uptake): 6.85 ± 2.48 %ID/g | tissue uptake at 1 h (in vivo [6]; Spleen uptake): 0.55 ± 0.08 %ID/g | tissue uptake at 4 h (in vivo [6]; Spleen uptake): 0.37 ± 0.09 %ID/g | tissue uptake at 1 h (in vivo [6]; Stomach uptake): 4.34 ± 0.5 %ID/g | tissue uptake at 4 h (in vivo [6]; Stomach uptake): 2.09 ± 0.5 %ID/g

C[C@@H](O)[C@@H]1NC(=O)[C@H](CCCCN)NC(=O)[C@@H](Cc2c[nH]c3ccccc23)NC(=O)[C@H](Cc2ccc(O)cc2)NC(=O)[C@@H](NC(=O)[C@@H](Cc2ccccc2)NC(=O)CCC(C(=O)O)N2CCN(CC(=O)O)CCN(CC(=O)O)CC2)CSSC[C@@H](C(=O)N[C@H](CO)[C@@H](C)O)NC1=O (some centres unmarked) [[64Cu]Cu-NODAGA-TOC, metal not drawn]
tissue uptake at 12 h (in vivo [7]; Adrenal uptake): 0.32 ± 0.2 %ID/g | tissue uptake at 24 h (in vivo [7]; Adrenal uptake): 0.18 ± 0.1 %ID/g | tissue uptake at 12 h (in vivo [7]; Femur uptake): 0.11 ± 0.04 %ID/g | tissue uptake at 12 h (in vivo [7]; Intestine uptake): 0.57 ± 0.07 %ID/g | tissue uptake at 24 h (in vivo [7]; Intestine uptake): 0.31 ± 0.05 %ID/g | tissue uptake at 12 h (in vivo [7]; Kidneys uptake): 2.46 ± 0.85 %ID/g | tissue uptake at 24 h (in vivo [7]; Kidneys uptake): 0.66 ± 0.15 %ID/g | tissue uptake at 12 h (in vivo [7]; Liver uptake): 0.37 ± 0.09 %ID/g | tissue uptake at 24 h (in vivo [7]; Liver uptake): 0.26 ± 0.02 %ID/g | tissue uptake at 12 h (in vivo [7]; Lung uptake): 0.51 ± 0.12 %ID/g | tissue uptake at 24 h (in vivo [7]; Lung uptake): 0.27 ± 0.09 %ID/g | tissue uptake at 12 h (in vivo [7]; Pancreas uptake): 0.14 ± 0.03 %ID/g | tissue uptake at 12 h (in vivo [7]; Pituitary uptake): 0.48 ± 0.25 %ID/g | tissue uptake at 24 h (in vivo [7]; Pituitary uptake): 0.43 ± 0.29 %ID/g | tissue uptake at 12 h (in vivo [7]; Stomach uptake): 0.75 ± 0.19 %ID/g | tissue uptake at 24 h (in vivo [7]; Stomach uptake): 0.26 ± 0.04 %ID/g
